Data on 10 substances can be found in patent publication US6054163.

In the test the target is piscicolin 126 (Carnobacterium piscicola JG126).
Consider Protease XXIII (enzyme), for which the residual bacteriocin activity after enzyme treatment (% of original activity; bioassay with Listeria monocytogenes 4A) amounted to 0%.

On to Protease XIV (enzyme), for which the residual bacteriocin activity after enzyme treatment (% of original activity; bioassay with Listeria monocytogenes 4A) was found to be 3%.

On to β-Chymotrypsin (enzyme), for which the residual bacteriocin activity after enzyme treatment (% of original activity; bioassay with Listeria monocytogenes 4A) came out at 0%.

Regarding Catalase (enzyme), the residual bacteriocin activity after enzyme treatment (% of original activity; bioassay with Listeria monocytogenes 4A) is 100%.

On to α-Chymotrypsin (enzyme), for which the residual bacteriocin activity after enzyme treatment (% of original activity; bioassay with Listeria monocytogenes 4A) was 0%.

Take Protease I (enzyme): the residual bacteriocin activity after enzyme treatment (% of original activity; bioassay with Listeria monocytogenes 4A) came to 0%.

In turn, Pepsin (enzyme) displayed a residual bacteriocin activity after enzyme treatment (% of original activity; bioassay with Listeria monocytogenes 4A) of 100%.

Substance Trypsin (enzyme) gave a residual bacteriocin activity after enzyme treatment (% of original activity; bioassay with Listeria monocytogenes 4A) of 6%.

Lysozyme (enzyme) showed a residual bacteriocin activity after enzyme treatment (% of original activity; bioassay with Listeria monocytogenes 4A) of 100%.

Lipase (enzyme): the residual bacteriocin activity after enzyme treatment (% of original activity; bioassay with Listeria monocytogenes 4A) worked out at 100%.
